Broadly, the stoichiometry N is a count of units in the complex or per binding partner.

Data set [1] has as its target GST‐tagged W105,107A variant of recombinant P. falciparum enolase (not stated | Plasmodium falciparum).
Data set [2] shares this target. As to the kind of experiment: SEC; proteins with the GST tag; Superdex‐200 Increase 10/300 GL, 1 mg protein in 0.5 mL buffer; 50 mM Tris‐HCl, 150 mM NaCl, 5 mM MgCl2 pH 7.5. In general terms: Size exclusion chromatography separates by hydrodynamic size, large species first.
Data set [3] addresses GST‐tagged W105,107K variant of recombinant P. falciparum enolase (not stated | Plasmodium falciparum).
The target is the same in data set [4]. As to the kind of experiment: SEC; proteins with the GST tag; Superdex‐200 Increase 10/300 GL, 1 mg protein in 0.5 mL buffer; 50 mM Tris‐HCl, 150 mM NaCl, 5 mM MgCl2 pH 7.5.
Data set [5] deals with the molecule itself. As to the kind of experiment: cell-based or functional assay.
Data set [6] concerns the molecule itself. In words: SEC; proteins without the GST tag; Superdex‐200 HiLoad 16/600, 1–2 mg of protein in 2 mL buffer; 50 mM Tris‐HCl, 150 mM NaCl, 5 mM MgCl2 pH 7.5; dimer to monomers.

Substitutions are numbered along the chain they refer to.

Take “GST‐tagged W105,107A variant of recombinant P. falciparum enolase (enzyme)”: the enolase activity, V max (% of GST‐rPfeno) (% of GST‐rPfeno) in data set [1] was found to be 22. Also, in data set [2], the stoichiometry N came to 2.
Take “GST‐tagged W105,107K variant of recombinant P. falciparum enolase (enzyme)”: the enolase activity, V max (% of GST‐rPfeno) (% of GST‐rPfeno) in data set [3] is 33. Moreover, the stoichiometry N in data set [4] was determined as 2.

B1: W105,107A variant of recombinant P. falciparum enolase, GST tag removed (enzyme, Plasmodium falciparum, UniProt Q27727 1-446, looked up)
chain: MAHVITRINAREILDSRGNPTVEVDLETNLGIFRAAVPSGASTGIYEALELRDNDKSRYLGKGVQKAIKNINEIIAPKLIGMNCTEQKKIDNLMVEELDGSKNEAGASKSKLGANAILAISMAVCRAGAAPNKVSLYKYLAQLAGKKSDQMVLPVPCLNVINGGSHAGNKLSFQEFMIVPVGAPSFKEALRYGAEVYHTLKSEIKKKYGIDATNVGDEGGFAPNILNANEALDLLVTAIKSAGYEGKVKIAMDVAASEFYNSENKTYDLDFKTPNNDKSLVKTGAQLVDLYIDLVKKYPIVSIEDPFDQDDWENYAKLTAAIGKDVQIVGDDLLVTNPTRITKALEKNACNALLLKVNQIGSITEAIEACLLSQKNNWGVMVSHRSGETEDVFIADLVVALRTGQIKTGAPCRSERNAKYNQLLRIEESLGNNAVFAGEKFRLQLN
Consider B1, for which the “enolase activity, V max (% WT rPfeno)” value in data set [5] is 4 % of WT‐rPfeno.

B2: recombinant P. falciparum enolase, wild type (WT‐rPfeno), GST tag removed (enzyme, Plasmodium falciparum, UniProt Q27727 1-446, looked up)
chain: B1 chain with A105W, A107W
notes: Plasmodium falciparum enolase (Pfeno), UniProt Q27727, 446 amino acids; also called Plasmodium falciparum enolase; source: E. coli BL21 (DE3), pGEX4T1, purified on glutathione Sepharose, GST tag cut off with thrombin
B2: the “stoichiometry N” value in data set [6] turned out to be 2.
